# Reference: PMC10036536, “Optimizing human α-galactosidase for treatment of Fabry disease” (Scientific Reports, 2023)
# Molecular target: the molecule itself
# Assay: SEC; protein eluted from concanavalin A-Sepharose; Superdex 200 PG 26/60, 2.4 mM Na2HPO4, 17.6 mM NaH2PO4 (pH 6.0), 150 mM NaCl, 0.02% Tween-20
protein,measurement,value
"recombinant human α-galactosidase A (GLA) (enzyme, UniProt P06280 32-429, looked up, α-galactosidase A, human, UniProt P06280; The methods say fractions of the homodimer were pooled; also called rhGLA) LDNGLARTPTMGWLHWERFMCNLDCQEEPDSCISEKLFMEMAELMVSEGWKDAGYEYLCIDDCWMAPQRDSEGRLQADPQRFPHGIRQLANYVHSKGLKLGIYADVGNKTCAGFPGSFGYYDIDAQTFADWGVDLLKFDGCYCDSLENLADGYKHMSLALNRTGRSIVYSCEWPLYMWPFQKPNYTEIRQYCNHWRNFADIDDSWKSIKSILDWTSFNQERIVDVAGPGGWNDPDMLVIGNFGLSWNQQVTQMALWAIMAAPLFMSNDLRHISPQAKALLQDKDVIAINQDPLGKQGYQLRQGDNFEVWERPLSGLAWAVAMINRQEIGGPRSYTIAVASLGKGVACNPACFITQLLPVKRKLGFYEWTSRLRSHINPTGTVLLQLENTMQMSLKDLL",stoichiometry N,2
